Square brackets hold non-standard residues; d marks the D form. pT = C[C@@H](OP(=O)(O)O)[C@H](N)C(=O)O; pS = N[C@@H](COP(=O)(O)O)C(=O)O

T1: Pellino 1 FHA (PELI1 residues 13-273) (human, UniProt Q96FA3 13-273)
T1 construct: Cloned into pGEX-6P1; same preparation for ITC and crystallography by the methods; also called PELI1 (13–273); N-terminal PELI1 fragment; source: E. coli BL21 (DE3), purified (Glutathione Sepharose, 3C cleavage, gel filtration); not shown: GST, N-terminal, cleaved
T1 sequence (looked up): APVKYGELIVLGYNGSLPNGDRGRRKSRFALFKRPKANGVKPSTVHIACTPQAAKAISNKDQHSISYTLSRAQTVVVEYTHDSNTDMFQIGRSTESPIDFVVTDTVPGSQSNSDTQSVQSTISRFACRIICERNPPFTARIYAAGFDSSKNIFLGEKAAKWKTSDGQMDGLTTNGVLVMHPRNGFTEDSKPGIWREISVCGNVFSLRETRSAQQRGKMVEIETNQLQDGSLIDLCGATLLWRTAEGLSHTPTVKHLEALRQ

T2: Pellino 2 FHA (PELI2 residues 15-275) (human, UniProt Q9HAT8 15-275)
T2 construct: Cloned into pGEX-6P1; also called PELI2 (15–273); N-terminal PELI2 fragment; source: E. coli BL21 (DE3), purified (Glutathione Sepharose, 3C cleavage, gel filtration); not shown: GST, N-terminal, cleaved
T2 sequence (looked up): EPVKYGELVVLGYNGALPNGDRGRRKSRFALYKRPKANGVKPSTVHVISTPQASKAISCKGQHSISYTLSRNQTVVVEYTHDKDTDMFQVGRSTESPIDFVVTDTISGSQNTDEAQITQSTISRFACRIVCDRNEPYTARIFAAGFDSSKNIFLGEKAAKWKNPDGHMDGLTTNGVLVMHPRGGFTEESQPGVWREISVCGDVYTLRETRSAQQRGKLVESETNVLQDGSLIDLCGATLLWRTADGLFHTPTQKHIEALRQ

B1: MDC1-pT752 phosphopeptide for ITC (AYEVLApTQPFC) (peptide)
peptide: Ac-AYEVLA[pT]QPFC-NH2
SMILES: CC(=O)N[C@@H](C)C(=O)N[C@@H](Cc1ccc(O)cc1)C(=O)N[C@@H](CCC(=O)O)C(=O)N[C@H](C(=O)N[C@@H](CC(C)C)C(=O)N[C@@H](C)C(=O)N[C@H](C(=O)N[C@@H](CCC(N)=O)C(=O)N1CCC[C@H]1C(=O)N[C@@H](Cc1ccccc1)C(=O)N[C@@H](CS)C(N)=O)[C@@H](C)OP(=O)(O)O)C(C)C
notes: two N-terminal residues that are not the MDC1 residues at this place; human MDC1, stretch around T752; Natural stretch with two added N-terminal residues (AY); source: synthetic peptide
B2: IRAK1-pT141(+3Y) phosphopeptide (AYSSASpTFLYP) (peptide)
peptide: Ac-AYSSAS[pT]FLYP-NH2
SMILES: CC(=O)N[C@@H](C)C(=O)N[C@@H](Cc1ccc(O)cc1)C(=O)N[C@@H](CO)C(=O)N[C@@H](CO)C(=O)N[C@@H](C)C(=O)N[C@@H](CO)C(=O)N[C@H](C(=O)N[C@@H](Cc1ccccc1)C(=O)N[C@@H](CC(C)C)C(=O)N[C@@H](Cc1ccc(O)cc1)C(=O)N1CCC[C@H]1C(N)=O)[C@@H](C)OP(=O)(O)O
notes: two N-terminal residues as in the other ITC peptides; IRAK1, stretch around T141 with tyrosine at pT+3; also called IRAK-pT141(+3Y); source: synthetic peptide
B3: MDC1-pT719 phosphopeptide for ITC (AYEDEPpTQAFA) (peptide)
chain: Ac-AYEDEP[pT]QAFA-NH2
SMILES: CC(=O)N[C@@H](C)C(=O)N[C@@H](Cc1ccc(O)cc1)C(=O)N[C@@H](CCC(=O)O)C(=O)N[C@@H](CC(=O)O)C(=O)N[C@@H](CCC(=O)O)C(=O)N1CCC[C@H]1C(=O)N[C@H](C(=O)N[C@@H](CCC(N)=O)C(=O)N[C@@H](C)C(=O)N[C@@H](Cc1ccccc1)C(=O)N[C@@H](C)C(N)=O)[C@@H](C)OP(=O)(O)O
B4: MDC1-pT765 phosphopeptide for ITC and crystallisation (AYEDSEpTQPFD) (peptide)
peptide: Ac-AYEDSE[pT]QPFD-NH2
SMILES: CC(=O)N[C@@H](C)C(=O)N[C@@H](Cc1ccc(O)cc1)C(=O)N[C@@H](CCC(=O)O)C(=O)N[C@@H](CC(=O)O)C(=O)N[C@@H](CO)C(=O)N[C@@H](CCC(=O)O)C(=O)N[C@H](C(=O)N[C@@H](CCC(N)=O)C(=O)N1CCC[C@H]1C(=O)N[C@@H](Cc1ccccc1)C(=O)N[C@@H](CC(=O)O)C(N)=O)[C@@H](C)OP(=O)(O)O
notes: two N-terminal residues that are not the MDC1 residues at this place; human MDC1, stretch around T765; Natural stretch with two added N-terminal residues (AY); The crystallisation methods name only 'the MDC1-pT765 phosphopeptide'; also called MDC1-pT765 (Site 4) phosphopeptide; MDC1 p765 peptide; source: synthetic peptide
B5: MDC1-pT699 phosphopeptide for ITC (AYDLQApTQCFA) (peptide)
peptide: Ac-AYDLQA[pT]QCFA-NH2
SMILES: CC(=O)N[C@@H](C)C(=O)N[C@@H](Cc1ccc(O)cc1)C(=O)N[C@@H](CC(=O)O)C(=O)N[C@@H](CC(C)C)C(=O)N[C@@H](CCC(N)=O)C(=O)N[C@@H](C)C(=O)N[C@H](C(=O)N[C@@H](CCC(N)=O)C(=O)N[C@@H](CS)C(=O)N[C@@H](Cc1ccccc1)C(=O)N[C@@H](C)C(N)=O)[C@@H](C)OP(=O)(O)O
notes: human MDC1, stretch around T699 with alanine at pT+4; source: synthetic peptide
B6: H2AX-pS139 phosphopeptide for ITC (GGKATQApSQEY) (peptide)
chain: Ac-GGKATQA[pS]QEY-NH2
SMILES: CC(=O)NCC(=O)NCC(=O)N[C@@H](CCCCN)C(=O)N[C@@H](C)C(=O)N[C@H](C(=O)N[C@@H](CCC(N)=O)C(=O)N[C@@H](C)C(=O)N[C@@H](COP(=O)(O)O)C(=O)N[C@@H](CCC(N)=O)C(=O)N[C@@H](CCC(=O)O)C(=O)N[C@@H](Cc1ccc(O)cc1)C(N)=O)[C@@H](C)O

One experiment concerns the target T1, Pellino 1 FHA (PELI1 residues 13-273). Put plainly: ITC; peptide in the syringe (typically 160 μM), protein in the cell (16 μM); 25 mM HEPES pH 7.0, 200 mM NaCl, 1 mM TCEP; single-site binding model. The following applies: both partners purified. Background: Isothermal titration calorimetry measures the heat released or taken up as one component is titrated into another.
In the case of B1, binding was characterised by a dissociation constant (Kd) of 1.14 µM; the dH was -18.5 kcal/mol; the stoichiometry N (in general, the number of molecules, sites or subunits per partner or assembly) was determined as 0.74.

Turning to B2, the Kd (as a rule, the concentration at which binding is half-saturated) turned out to be 0.42 µM; the dH is -17.4 kcal/mol; the “stoichiometry N” value was found to be 0.7.

With B3, the Kd is 1.14 µM, the dH was -21.8 kcal/mol and the “stoichiometry N” value was determined as 0.78.

Regarding B4, the Kd worked out at 0.23 µM, the dH is -22 kcal/mol and the “stoichiometry N” value turned out to be 0.62.

As for B5, the affinity, expressed as Kd, was 2.01 µM; the dH is -18.5 kcal/mol; the “stoichiometry N” value came out at 0.36.

Another experiment addresses T2, Pellino 2 FHA (PELI2 residues 15-275). Described as above. The following applies: both partners purified.
On to B1, for which binding was characterised by a dissociation constant (Kd) of 1.06 µM, the dH is -28.2 kcal/mol and the “stoichiometry N” value stood at 0.69.

Turning to B2, the Kd was 0.7 µM, the dH was -25.8 kcal/mol and the “stoichiometry N” value came to 0.59.

On to B3, for which the equilibrium dissociation constant (Kd) worked out at 1.22 µM, the dH was -34.7 kcal/mol and the “stoichiometry N” value came to 0.52.

Take B4: binding was put at a Kd of 0.37 µM, the dH was -32.7 kcal/mol and the “stoichiometry N” value was determined as 0.69.

Take B5: the Kd amounted to 1.12 µM, the dH was -19.9 kcal/mol and the “stoichiometry N” value was 0.55.

A further experiment has as its target T3, MDC1 BRCT-repeat fragment (human).
T3 construct: MDC1, BRCT-repeat fragment; source: purified
Described as above. The settings on record: both partners purified.
In the case of B6, binding was characterised by a dissociation constant (Kd) of 0.85 µM, the dH was -13.9 kcal/mol and the “stoichiometry N” value stood at 0.6.

These data come from paper PMC11884936, “MDC1 mediates Pellino recruitment to sites of DNA double-strand breaks” (Life Science Alliance, 2025).
